{"source": "paper PMC6138625", "assay_in_all_cases": "magnetic tweezers SMBA", "key": {"[1]": {"system": "yUPF1 helicase domain (Saccharomyces cerevisiae)", "settings": "no ATP; 7 pN; n=11; SMBA in helicase buffer without ATP (composition not in the material), 1-20 nM helicase, force cycles >15 pN / 7 pN / <3 pN"}, "[2]": {"system": "UPF1 R487S (R-S) (Saccharomyces cerevisiae)", "settings": "SMBA in helicase buffer without ATP (composition not in the material), 1-20 nM helicase, force cycles >15 pN / 7 pN / <3 pN"}, "[3]": {"system": "IGHMBP2 helicase core (Homo sapiens)", "settings": "no ATP; 7 pN; n=48; SMBA in helicase buffer without ATP (composition not in the material), 1-20 nM helicase, force cycles >15 pN / 7 pN / <3 pN"}, "[4]": {"system": "UPF1/BC (Saccharomyces cerevisiae / Homo sapiens chimera)", "settings": "no ATP; slides; SMBA in helicase buffer without ATP (composition not in the material), 1-20 nM helicase, force cycles >15 pN / 7 pN / <3 pN"}, "[5]": {"system": "IGHMBP2-FL (Homo sapiens)", "settings": "no ATP; 7 pN; n=27; SMBA in helicase buffer without ATP (composition not in the material), 1-20 nM helicase, force cycles >15 pN / 7 pN / <3 pN"}, "[6]": {"system": "IGHMBP2/BC (Homo sapiens / Saccharomyces cerevisiae chimera)", "settings": "no ATP; SMBA in helicase buffer without ATP (composition not in the material), 1-20 nM helicase, force cycles >15 pN / 7 pN / <3 pN"}}, "data": [{"substance": "magnetic tweezers DNA hairpin", "values": [{"measurement": "binding signal (s (residence time))", "setting": "[1]", "result": "> 5500"}, {"measurement": "binding signal (s (residence time))", "setting": "[2]; ADPNP, sliding -0.109 nm/s, n=58", "result": 1630}, {"measurement": "binding signal (s (residence time))", "setting": "[2]; no ATP, sliding -0.063 nm/s", "result": 1840}, {"measurement": "binding signal (s (residence time))", "setting": "[3]", "result": 20}, {"measurement": "binding signal (s (residence time))", "setting": "[4]", "result": 930}, {"measurement": "binding signal (s (residence time))", "setting": "[5]", "result": 60}, {"measurement": "binding signal (s (residence time))", "setting": "[6]", "result": 9540}]}]}
